From paper PMC9734117, “Selective posttranslational inhibition of CaVβ1-associated voltage-dependent calcium channels with a functionalized nanobody” (Nature Communications, 2022)

What was measured:
Settings in all cases: partners not purified
Cerulean-CaVβ1 = Cerulean-CaVβ1 ( (human or rat cDNA cloned), UniProt Q02641-1); assay: FRET or BRET; flow cytometry FRET (flow-FRET) in live HEK293 cells co-transfected with Venus-nanobody and Cerulean-CaVβ; FRET efficiency against free nanobody fitted with a 1:1 binding model; effective dissociation constant (Kd,EFF); cycloheximide 100 μM 2 h before
Chain of Cerulean-CaVβ1 (Q02641 whole entry): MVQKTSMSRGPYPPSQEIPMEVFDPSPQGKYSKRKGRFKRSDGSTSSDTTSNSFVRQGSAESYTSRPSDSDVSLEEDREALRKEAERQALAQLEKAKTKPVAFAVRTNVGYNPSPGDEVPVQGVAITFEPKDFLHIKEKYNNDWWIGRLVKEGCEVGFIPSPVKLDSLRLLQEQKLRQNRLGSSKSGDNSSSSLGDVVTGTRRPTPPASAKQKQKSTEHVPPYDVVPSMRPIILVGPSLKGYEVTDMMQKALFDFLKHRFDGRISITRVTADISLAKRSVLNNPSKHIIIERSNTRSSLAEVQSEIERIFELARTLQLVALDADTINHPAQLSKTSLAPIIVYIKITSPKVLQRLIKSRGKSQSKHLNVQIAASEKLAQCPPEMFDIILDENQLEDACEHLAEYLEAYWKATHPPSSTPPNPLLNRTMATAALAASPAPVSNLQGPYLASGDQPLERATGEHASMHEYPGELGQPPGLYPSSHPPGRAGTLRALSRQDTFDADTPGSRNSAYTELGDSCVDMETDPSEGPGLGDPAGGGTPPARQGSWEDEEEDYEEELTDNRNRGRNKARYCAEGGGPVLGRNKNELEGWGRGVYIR

Cerulean-CaVβ2 = Cerulean-CaVβ2 ( (human or rat cDNA cloned), UniProt Q08289); assay: as above
Chain of Cerulean-CaVβ2 (Q08289 whole entry): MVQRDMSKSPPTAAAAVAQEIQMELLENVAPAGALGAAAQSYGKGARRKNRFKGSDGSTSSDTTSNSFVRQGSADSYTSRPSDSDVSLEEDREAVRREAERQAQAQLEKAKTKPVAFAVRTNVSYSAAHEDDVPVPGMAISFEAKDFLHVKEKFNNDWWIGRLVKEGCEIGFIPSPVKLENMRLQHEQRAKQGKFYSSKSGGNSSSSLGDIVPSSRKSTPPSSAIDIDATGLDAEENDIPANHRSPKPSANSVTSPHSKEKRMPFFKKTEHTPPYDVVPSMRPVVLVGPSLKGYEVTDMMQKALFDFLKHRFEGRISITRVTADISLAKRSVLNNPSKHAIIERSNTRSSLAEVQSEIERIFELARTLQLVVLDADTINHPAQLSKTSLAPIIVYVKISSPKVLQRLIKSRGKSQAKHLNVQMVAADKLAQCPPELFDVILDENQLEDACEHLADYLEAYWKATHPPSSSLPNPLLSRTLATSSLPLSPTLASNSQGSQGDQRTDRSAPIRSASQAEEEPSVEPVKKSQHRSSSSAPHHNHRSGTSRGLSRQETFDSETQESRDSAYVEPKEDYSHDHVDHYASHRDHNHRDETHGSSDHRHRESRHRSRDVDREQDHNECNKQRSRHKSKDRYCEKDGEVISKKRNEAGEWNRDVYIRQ

Cerulean-CaVβ3 = Cerulean-CaVβ3 ( (human or rat cDNA cloned), UniProt P54284); assay: as above
Chain of Cerulean-CaVβ3 (P54284 whole entry): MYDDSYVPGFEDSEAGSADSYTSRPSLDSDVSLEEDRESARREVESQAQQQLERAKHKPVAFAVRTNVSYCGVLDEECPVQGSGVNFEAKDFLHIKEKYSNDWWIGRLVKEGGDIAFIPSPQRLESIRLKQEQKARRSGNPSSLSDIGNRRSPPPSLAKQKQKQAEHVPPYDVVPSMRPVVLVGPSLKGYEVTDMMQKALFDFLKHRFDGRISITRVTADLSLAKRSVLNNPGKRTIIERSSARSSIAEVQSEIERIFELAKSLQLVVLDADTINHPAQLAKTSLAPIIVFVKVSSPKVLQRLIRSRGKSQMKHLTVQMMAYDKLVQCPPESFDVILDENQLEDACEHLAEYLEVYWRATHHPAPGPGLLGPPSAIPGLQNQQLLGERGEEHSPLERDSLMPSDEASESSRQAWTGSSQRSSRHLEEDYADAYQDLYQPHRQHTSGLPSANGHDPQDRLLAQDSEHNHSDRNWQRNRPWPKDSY

Cerulean-CaVβ4 = Cerulean-CaVβ4 ( (human or rat cDNA cloned), UniProt O00305); assay: as above
Venus-tagged β1b[NK-CT] = molecular target: T1, Venus-tagged β1b[NK-CT] (Rattus norvegicus (assumed), UniProt P54283); assay: FRET or BRET; flow cytometry FRET (flow-FRET) in HEK293 cells co-expressing Cerulean-nb.E8 and Venus-tagged β1b modules or β1b/β3 chimeras; 1:1 binding model; effective dissociation constant (Kd,EFF)
T1 construct: CaVβ1b module of the NK domain and the C-terminus; the text says the module was tagged with Cerulean; source: HEK293, co-expressed, in cells
T1 sequence (P54283 whole entry, looked up, the tested form may be a part): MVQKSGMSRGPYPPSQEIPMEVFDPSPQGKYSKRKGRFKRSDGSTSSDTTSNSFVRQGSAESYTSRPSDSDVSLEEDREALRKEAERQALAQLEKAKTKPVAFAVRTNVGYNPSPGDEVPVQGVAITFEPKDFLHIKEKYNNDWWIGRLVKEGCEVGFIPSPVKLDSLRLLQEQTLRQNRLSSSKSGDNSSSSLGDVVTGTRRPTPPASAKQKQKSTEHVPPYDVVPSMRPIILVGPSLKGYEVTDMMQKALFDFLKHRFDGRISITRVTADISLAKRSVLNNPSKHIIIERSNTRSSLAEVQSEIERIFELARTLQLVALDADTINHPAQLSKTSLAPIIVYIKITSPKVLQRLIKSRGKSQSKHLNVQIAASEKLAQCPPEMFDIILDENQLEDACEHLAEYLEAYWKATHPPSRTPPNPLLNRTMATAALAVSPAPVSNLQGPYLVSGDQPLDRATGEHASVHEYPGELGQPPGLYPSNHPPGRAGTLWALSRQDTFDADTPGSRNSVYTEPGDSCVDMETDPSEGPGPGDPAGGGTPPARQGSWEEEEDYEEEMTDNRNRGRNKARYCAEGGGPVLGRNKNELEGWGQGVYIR

B1: Venus-nb.E8 (VHH)
VHH: QVQLQESGGGSVQAGGSLRLSCAASGRTFSKNAMGWFRQAPGKEREFVVAISWSGRNTYYADSVKGRFTISRDNAKNTVDLQMNSLKPEDSAVYYCAVGGDWRVYDISFYYTAHQYEYWGQGTQVTVSS
notes: llama nanobody nb.E8 from a phage display library; The methods say the nanobodies were cloned upstream of a Venus marker (pCDNA3.1), while the name Venus-nb.E8 puts the tag first; also called Venus-tagged nb.E8; source: HEK293, transiently co-transfected, in cells; not shown: Venus, C-terminal, kept
- binding result (Cerulean-CaVβ1): binds
- binding result (Cerulean-CaVβ2): no binding
- binding result (Cerulean-CaVβ3): no binding
- binding result (Cerulean-CaVβ4): no binding

B2: Cerulean-nb.E8 (VHH)
VHH: B1 VHH
notes: the text of the results says that the CaVβ1 modules carried Cerulean; source: HEK293, co-expressed, in cells
- binding result (Venus-tagged β1b[NK-CT]): no binding

B3: Venus-nb.F3 (VHH)
VHH: QVQLQESGGGLVQAGGSLRLSCVASGRTFSSYAMGWFRQAPGKEREFVAAIDWSGGTASHADSVKGRFTISRDNAKNTVYLQMNSLKPEDTAVYYCAASSYWSRSVDEYDYWGQGTQVTVSS
notes: llama nanobody nb.F3 from a phage display library; The methods say the nanobodies were cloned upstream of a Venus marker (pCDNA3.1), while the name Venus-nb.F3 puts the tag first; also called Venus-tagged nb.F3; source: HEK293, transiently co-transfected, in cells; not shown: Venus, C-terminal, kept
- binding result (Cerulean-CaVβ1): binds
- binding result (Cerulean-CaVβ2): binds
- binding result (Cerulean-CaVβ3): binds
- binding result (Cerulean-CaVβ4): binds
